Here are results for one substance from publication PMC2132522.

In assay [1] the target is F-actin (rabbit muscle) (rabbit) (UniProt P68135). Put plainly: co-sedimentation.
Assay [2] deals with G-actin (rabbit muscle) (rabbit) (UniProt P68135).
Assay [3] has as its target pyrenyl-labeled F-actin (rabbit muscle) (rabbit) (UniProt P68135). As to the kind of experiment: other fluorescence titration.
Assay [4] deals with NBD-labeled G-actin (rabbit muscle) (rabbit) (UniProt P68135). As to the kind of experiment: other fluorescence titration.

In general, stoichiometry N refers to the number of molecules, sites or subunits per partner or assembly. In general, Kd refers to the concentration at which binding is half-saturated. Higher therefore signals a looser complex. In the case of “Recombinant ADF1 from Arabidopsis thaliana (natural protein)”, the stoichiometry N in assay [1], in assay [3] and in assay [4] was 1 each time. Also, the association to barbed ends in low ionic strength F buffer (1 mM MgCl2) in assay [2] was 20 fold. In assay [3], this substance had a Ka of over 1e+06 M⁻¹. This substance also showed a Kd in assay [4] of 25 nM.
